We go through one substance from US6001604.

The experiment concerns the target SOD-proinsulin hybrid polypeptide expressed by plasmid pBAST-R (SOD-Insulin B chain-Lys-Arg-Insulin A chain hybrid polypeptide) (human).

Regarding trypsin (Sigma) (enzyme), the human insulin generation after enzymatic cleavage (radioimmunoassay and RP-HPLC) (% of the theoretical yield) was found to be 80.
